Values of other authors, collected in article PMC6263114.

Target: transferrin receptor (TfR) (Homo sapiens) (UniProt P02786)
Sequence (P02786 89-760): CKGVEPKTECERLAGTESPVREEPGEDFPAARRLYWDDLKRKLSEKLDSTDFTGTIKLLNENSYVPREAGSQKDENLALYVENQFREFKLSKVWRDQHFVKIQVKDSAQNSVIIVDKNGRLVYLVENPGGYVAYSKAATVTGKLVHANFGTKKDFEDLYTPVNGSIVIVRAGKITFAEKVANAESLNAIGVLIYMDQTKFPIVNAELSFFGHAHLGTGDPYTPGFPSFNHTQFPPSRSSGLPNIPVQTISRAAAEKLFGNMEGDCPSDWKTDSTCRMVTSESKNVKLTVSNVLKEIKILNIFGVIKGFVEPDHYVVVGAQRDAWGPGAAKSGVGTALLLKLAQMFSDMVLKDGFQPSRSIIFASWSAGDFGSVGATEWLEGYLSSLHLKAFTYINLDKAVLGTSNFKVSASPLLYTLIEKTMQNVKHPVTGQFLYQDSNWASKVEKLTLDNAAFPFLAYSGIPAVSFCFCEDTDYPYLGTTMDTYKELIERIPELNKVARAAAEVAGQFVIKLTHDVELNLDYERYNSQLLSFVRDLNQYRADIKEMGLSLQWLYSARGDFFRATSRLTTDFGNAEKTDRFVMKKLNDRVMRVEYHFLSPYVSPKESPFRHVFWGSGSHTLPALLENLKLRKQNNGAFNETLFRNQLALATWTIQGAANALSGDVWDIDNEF

Kd: 10 nM
Substance: T7 peptide
